In test [1] the target is T1, cynomolgus CCR9 (cynomolgus, UniProt Q0H741 1-369).
T1 sequence: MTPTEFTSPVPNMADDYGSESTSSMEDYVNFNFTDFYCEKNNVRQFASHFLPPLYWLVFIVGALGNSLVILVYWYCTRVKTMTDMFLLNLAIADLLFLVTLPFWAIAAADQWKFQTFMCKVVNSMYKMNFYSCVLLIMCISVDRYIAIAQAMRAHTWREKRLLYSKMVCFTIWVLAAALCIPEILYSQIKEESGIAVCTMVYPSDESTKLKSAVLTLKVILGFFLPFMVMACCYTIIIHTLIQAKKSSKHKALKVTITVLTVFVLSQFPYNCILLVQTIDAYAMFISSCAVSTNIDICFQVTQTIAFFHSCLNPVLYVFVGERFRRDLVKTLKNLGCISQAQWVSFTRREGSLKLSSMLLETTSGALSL
Briefly: cell-based or functional assay.

The target in test [2] is T2, mouse CCR9 (mouse, UniProt Q9WUT7 1-369).
T2 construct: whole, on cells; Overexpressed on HEK cells; also called mCCR9; Mouse HEK
T2 sequence (looked up): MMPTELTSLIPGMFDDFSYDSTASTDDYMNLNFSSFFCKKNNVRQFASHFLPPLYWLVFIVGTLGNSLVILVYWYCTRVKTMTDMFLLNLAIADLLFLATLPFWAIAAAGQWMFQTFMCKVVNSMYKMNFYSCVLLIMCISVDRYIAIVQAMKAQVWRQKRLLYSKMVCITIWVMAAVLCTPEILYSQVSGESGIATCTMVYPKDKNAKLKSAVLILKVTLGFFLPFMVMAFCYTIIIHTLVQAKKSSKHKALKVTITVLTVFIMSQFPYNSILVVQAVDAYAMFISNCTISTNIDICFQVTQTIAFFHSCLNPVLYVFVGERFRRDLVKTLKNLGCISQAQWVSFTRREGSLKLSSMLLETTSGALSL
Briefly: cell binding by the methods of Example 4.

Test [3] deals with T3, rat CCR9 (rat, UniProt Q8CH33 1-369).
T3 construct: Overexpressed on HEK cells; also called Rat HEK
T3 sequence: T2 sequence (looked up) with M2T, L6F, F17Y, I60V, L64V, V189I, T197I, S272C, A283T
Briefly: cell binding by the methods of Example 4.

Test [4] addresses T4, CCR5 (UniProt P51681 1-352, limits assumed).
T4 construct: whole, on cells; The cell line is not described
Briefly: binding to cells expressing CCR5, fluorescence counts (FL1 Counts) against Log M.

The target in test [5] is T5, CCR8 (UniProt P51685 1-355, limits assumed).
T5 construct: whole, on cells; The cell line is not described
T5 sequence (P51685 whole entry): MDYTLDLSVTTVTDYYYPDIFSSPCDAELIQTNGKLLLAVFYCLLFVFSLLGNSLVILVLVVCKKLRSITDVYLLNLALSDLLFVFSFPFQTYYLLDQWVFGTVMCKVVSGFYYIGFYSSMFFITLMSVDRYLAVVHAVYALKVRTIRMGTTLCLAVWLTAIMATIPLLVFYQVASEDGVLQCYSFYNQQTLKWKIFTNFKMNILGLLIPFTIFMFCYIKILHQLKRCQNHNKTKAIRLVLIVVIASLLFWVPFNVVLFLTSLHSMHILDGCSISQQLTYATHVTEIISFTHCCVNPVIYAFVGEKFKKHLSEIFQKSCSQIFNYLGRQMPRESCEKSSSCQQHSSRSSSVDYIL
Briefly: binding to cells expressing CCR8, fluorescence counts (FL1 Counts) against Log M.

Test [6] has as its target T6, CXCR1 (UniProt P25024 1-350, limits assumed).
T6 construct: whole, on cells; The cell line is not described
T6 sequence (looked up): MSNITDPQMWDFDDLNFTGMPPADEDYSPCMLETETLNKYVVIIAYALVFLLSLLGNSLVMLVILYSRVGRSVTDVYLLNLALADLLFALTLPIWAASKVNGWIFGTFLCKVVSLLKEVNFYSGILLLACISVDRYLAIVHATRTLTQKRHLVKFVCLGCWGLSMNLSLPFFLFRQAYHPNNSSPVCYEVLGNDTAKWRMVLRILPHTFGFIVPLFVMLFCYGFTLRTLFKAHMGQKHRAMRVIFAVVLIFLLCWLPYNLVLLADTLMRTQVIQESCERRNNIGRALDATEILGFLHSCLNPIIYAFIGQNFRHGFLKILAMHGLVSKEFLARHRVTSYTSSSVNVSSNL
Briefly: binding to cells expressing CXCR1, fluorescence counts (FL1 Counts) against Log M.

Test [7] addresses T7, CXCR2 (UniProt P25025 1-360, limits assumed).
T7 construct: whole, on cells; The cell line is not described
T7 sequence (looked up): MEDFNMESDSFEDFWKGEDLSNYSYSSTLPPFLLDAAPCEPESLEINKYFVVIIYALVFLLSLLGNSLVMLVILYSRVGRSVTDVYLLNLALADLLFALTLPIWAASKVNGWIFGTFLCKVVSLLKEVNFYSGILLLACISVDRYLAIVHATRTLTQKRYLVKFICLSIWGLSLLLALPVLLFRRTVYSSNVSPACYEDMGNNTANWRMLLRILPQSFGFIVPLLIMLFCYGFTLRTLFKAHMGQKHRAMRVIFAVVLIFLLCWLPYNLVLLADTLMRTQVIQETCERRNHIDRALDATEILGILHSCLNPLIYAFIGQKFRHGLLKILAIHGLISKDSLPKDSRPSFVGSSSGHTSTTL
In words: binding to cells expressing CXCR2, fluorescence counts (FL1 Counts) against Log M.

For test [8], the target named is T8, human CCR9A (human, UniProt P51686 1-369).
T8 construct: Overexpressed on HEK cells; also called Hu A HEK; hCCR9 isoform A
T8 sequence: T1 sequence with E5D, V10I, V197I, M228V, S288N
Briefly: binding to cells expressing human CCR9A, fluorescence counts (FL1 Counts) against Log M.

Test [9] deals with T9, human CCR9B (human, UniProt P51686 13-369).
T9 construct: Overexpressed on HEK cells; also called Hu B HEK; hCCR9 isoform B
T9 sequence: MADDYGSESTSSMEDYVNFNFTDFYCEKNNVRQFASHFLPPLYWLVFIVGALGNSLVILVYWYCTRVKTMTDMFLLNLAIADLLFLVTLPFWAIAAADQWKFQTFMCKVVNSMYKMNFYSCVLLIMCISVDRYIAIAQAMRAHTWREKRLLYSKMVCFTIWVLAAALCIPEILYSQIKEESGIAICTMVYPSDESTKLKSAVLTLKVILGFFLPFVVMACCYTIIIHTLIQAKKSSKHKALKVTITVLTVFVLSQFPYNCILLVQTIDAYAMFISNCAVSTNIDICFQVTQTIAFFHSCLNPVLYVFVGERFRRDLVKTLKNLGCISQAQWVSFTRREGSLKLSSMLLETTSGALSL
In words: binding to cells expressing human CCR9B, fluorescence counts (FL1 Counts) against Log M.

Test [10] has as its target T4, CCR5. Briefly: binding to cells expressing CCR5, fluorescence counts (FL1 Counts) against Log M. This is another data set of the same source.
The target of test [11] is T5, CCR8. In words: binding to cells expressing CCR8, fluorescence counts (FL1 Counts) against Log M. The source holds these as a separate data set.
The target in test [12] is T1, cynomolgus CCR9. In words: binding to HEK cells expressing cynomolgus CCR9, fluorescence counts (FL1 Counts) against Log M.
The target of test [13] is T3, rat CCR9. Briefly: binding to HEK cells overexpressing rat CCR9, MFI against [Ab] ug/ml. Here is the method:
(§1) The antibody AB1020243 (hybridoma mIgG) was also tested for binding to different forms of CCR9. Briefly, test antibody was diluted to a concentration of 60 μg/mL in assay buffer containing Hanks Balanced Salt solution (Sigma HB264) plus 0.1% Bovine Serum Albumin (Sigma A9576). Antibody was titrated in duplicate using single fold titrations over 24 points on a 384 black clear bottomed, non-binding microplate (Corning® NBS™ 3655) so that the final volume of test antibody was 10 μL per well. […]
(§2) Transfected HEK CCR9 overexpressing cell lines or un-transfected parental control cells were suspended in assay buffer at a concentration of 1×10⁶ cells per ml, and 10 μL of cells were dispensed to the assay plate containing test antibody and secondary antibody using a Multidrop dispenser (Thermo Scientific). Assay plates were incubated overnight at 4° C. and were read on a mirrorball® (laser scanning fluorescence cytometer; TTP-Labtech) using excitation at 488 nm and emission using the FL4channel (667-685 nm). Data was plotted in GraphPad Prism version 8.0.0 for Windows (GraphPad Software, San Diego, California USA) and expressed as Log (mg/mL antibody) v's Fluorescence (FL4) counts.

Test [14] deals with T2, mouse CCR9. In words: binding to HEK cells overexpressing mouse CCR9, MFI against [Ab] ug/ml. Here is the method:
as §1, §2

Test [15] addresses T8, human CCR9A. Briefly: binding to HEK cells overexpressing human CCR9A, MFI against [Ab] ug/ml; Parental HEK stays at about 0. Here is the method: as §1, §2
In test [16] the target is T9, human CCR9B. In words: binding to HEK cells overexpressing human CCR9B, MFI against [Ab] ug/ml; Parental HEK stays at about 0. Here is the method:
as §1, §2

Positions count from the first letter of the chain named. Like-named read-outs stand apart in the source and are kept apart here.

T4 sequence (P51681 whole entry): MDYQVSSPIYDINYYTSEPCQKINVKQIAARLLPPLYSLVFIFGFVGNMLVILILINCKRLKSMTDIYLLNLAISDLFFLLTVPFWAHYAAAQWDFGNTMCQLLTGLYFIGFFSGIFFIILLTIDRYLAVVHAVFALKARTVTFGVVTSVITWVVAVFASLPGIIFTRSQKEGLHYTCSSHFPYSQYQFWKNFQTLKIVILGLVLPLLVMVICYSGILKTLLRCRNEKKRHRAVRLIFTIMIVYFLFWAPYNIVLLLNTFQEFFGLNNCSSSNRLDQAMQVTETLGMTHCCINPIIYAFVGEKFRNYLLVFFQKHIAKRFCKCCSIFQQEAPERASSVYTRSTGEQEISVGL

B1: AB243LO0326 (antibody, V domains shown)
VH: QVQLVQSGAEVKKPGASVKVSCKASGYTFTSYWMHWVRQAPGQGLEWIGVIYPGNSDTRYNQKFKGRVTITRDTSASTAYMELSSLRSEDTAVYYCTRDYYSNYVYYYAMDYWGQGTTVTVSS
VL: DIVMTQTPLSLPVTPGEPASISCRSSQSLVHPNRNTYLHWYLQKPGQSPQLLIYKVSNRFSGVPDRFSGSGSGTDFTLKISRVEAEDVGVYYCSQSTHVPWTFGQGTKLEIK
modifications: afucosylated form; in the LigandTracer assay DyLight 650 Maleimide on an engineered cysteine residue in the CH2 region
notes: Full chains are not tied to the tested lot
In the case of B1, the “EC50, killing of cynomolgus CD4+CCR9+ PBMC” value in [1] was 0.03 nM. The binding result in test [2] was “no binding”; in [3] it was “no binding”; in test [4] it was “no binding (tested: Log M about -6.9 (about 1e-7 M))”; in test [5], “no binding (tested: Log M about -6.9 (about 1e-7 M))”; in test [6] it was “no binding (tested: Log M about -6.9 (about 1e-7 M))”; in test [7], “no binding (tested: Log M about -6.9 (about 1e-7 M))”. The binding result in test [8] and in [9] was “binds” in each case.

B2: AB243LO0331 (antibody, IgG1, V domains shown)
VH: B1 VH
VL: B1 VL with P32S, R34T
modifications: afucosylated form
Turning to B2, the binding result in test [2] and in test [3] was “no binding” throughout.

B3: AB1020243 afuc (chimeric parent antibody, afucosylated) (antibody, V domains shown)
VH: EVQLQQSGTVLARPGASVKMSCKASGYTFTSYWMHWVKQRPGQGLEWIGVIYPGNSDTRYNQKFKGKAKLTAVTSATTAYMELSSLTNEDSAVYYCTRDYYSNYVYYYAMDYWGQGTSVTVSS
VL: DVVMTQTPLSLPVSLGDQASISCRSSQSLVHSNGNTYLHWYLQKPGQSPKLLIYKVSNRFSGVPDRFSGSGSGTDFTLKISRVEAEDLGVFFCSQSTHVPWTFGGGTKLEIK
modifications: afucosylated form; in the LigandTracer assay DyLight 650 Maleimide on an engineered cysteine residue in the CH2 region
notes: Mouse variable domains; Called chimeric, with human IgG1 format stated for the LigandTracer assay; also called chimeric AB1020243; parent AB1020243
As to B3, the binding result is listed as “no binding (tested: Log M about -6.5 (about 3e-7 M))” in test [10], “no binding (tested: Log M about -6.5 (about 3e-7 M))” in test [11], “no binding (tested: Log M about -6.9 (about 1e-7 M))” in test [6] and “no binding (tested: Log M about -6.9 (about 1e-7 M))” in test [7]. The “EC50 (read off the curve)” value in test [12] was about 0.6 nM.

B4: AB1020243 (hybridoma mIgG) (antibody, V domains shown)
VH: B3 VH
VL: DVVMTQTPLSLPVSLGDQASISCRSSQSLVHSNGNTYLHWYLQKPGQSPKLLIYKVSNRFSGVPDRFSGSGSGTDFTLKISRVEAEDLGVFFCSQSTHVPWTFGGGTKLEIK
notes: Mouse IgG from the hybridoma; also called clone ZY10O1-A02
For B4, the binding result in test [13] is “no binding (tested: 10 ug/ml)”; in test [14] it was “no binding (tested: 10 ug/ml)”; in test [15], “binds”; in [16] it was “binds”.

What is called EC50 (read off the curve) is the concentration at which the effect is half-maximal. A high value points to a less potent agent.
